Assay results as given in the DeepSol protein solubility set.

Assay: soluble on expression in E. coli; label from the status in PepcDB or PDB records

Sequence | soluble on expression in E. coli
MRITASLRTFCHLSTPHSDSTTSRLWIDEVTAVARQRDRDSFMRIYDHFAPRLLRYLTGLNVPEGQAEELVQEVLLKLWHKAESFDPSKASLGTWLFRIARNLYIDSVRKDRGWVQVQNSLEQLERLEAPVDRTLDYSQRQEQQLNSAIQNLPTDQAKVLRMSYFEALSHREISERLDMPLGTVKSCLRLAFQKLRSRIEES | not soluble
MAHHHHHHMRCGGRWIVERSDGFVIEVEKPGVSVVFGRDIGLPSAQRMDGKYVSRQQFSVEWKASSLHVRQLGKNPTFYSMEFHTLPGDGTAEKELVCCREEETREGKQMGDGGKGLNVILVPPVSNENFLASLRGGAKGIEPATLHFPGELNLPRFTVRYVVADEKSSEEKISREMLTVPLGSSKSDEVEEDERANQPWMTGSWRGILDSVLHEQQQQQQQAER | not soluble
MTDRYTIHSQLEHLQSKYIGTGHADTTKWEWLVNQHRDSYCSYMGHFDLLNYFAIAENESKARVRFNLMEKMLQPCGPPADKPEEN | soluble
MGSDKIHHHHHHMITPQDRLIKALNGQVIDRSPCICPGGMMNMATTEIMQRVGSHWPEAHKKPQDMARLALGVCHLTGMENLGVPFCMTVEAEAMGAKVNLGSLANEPRVAEYPLMKLEDWETLSGINPGEGRAGIVAEAVSYLTSSKTELPVIANLTGPISLASSLIEPMVFFKAMGKKPELVHEFLYFVTDNLIVFGRSMLQAGAQIINIADPGGTEEILGPRHFAEFALPYINRILNELQGEYQASMVHICGRLQSIFTEINQLATNAISIDSTTSISKLRSALREKVVVGNISTYLLQNAQPGRVKATGFNCLRKGITILSPACGISPATPLANLQAMVSAVHDFDYQNREVSSLG | not soluble
EIGEPDVTDATLGSVYSEIISPVKDCILTVAKAVSFNPGGKDNTDAVEVLTELNTKVERAALNQPILTTKTER | soluble
MMNNVKYLSFALILAFSACKSGSASSQEPSEKQDTVKIFNLPQIPVVLNTVEQRTDYMVKHYWDRFDFSDTTYINQAEVPEQAWVDYCDLLEHVPLPVAQTAMKETFNRAEKNRKMLHFFEELADKYLYDPNSPMRNEEFYIPVLEALIASPALDETAKIRPQARLELAQKNRLGTKALNFTYTLDSGVKGTLYQFPAEYTLLFINNPGCHACAEMIEGLKASPVINGFTAAKKLKVLSIYPDEELDEWKKHRNDFAKEWTNGYDKELVIKNKNLYDLRAIPTLYLLDKNKTVLLKDATLQKVEQYLAERG | not soluble
AQGQQGQVRLLCNTAALTEYLPELLASYLAENPGVSVDVQELPSLRIVQAITQGMADLGIVSTAAPSEHLQTRPFRDDPLVLVTPQAHPLASALAPSFVDSLAHGYVGLGAGSALGLYLEEQALHEGQRMQVRVRAEGFDGV | not soluble
MKEILDHYGSLLSRIDDWFRACLDSSGDRIRCADGCSDCCRGLFDITLLDAAFLRRGFDRLDPEVREQVLVRCRERIAILRLVWPEFDQPFILNMRPDDEWEALMPDDDETPCPLLDRHGRCLVYEHRPMTCRLHGLPLVDVSGEIMHDEWCTLNCIDADPLADPALRGDFDRIFTEEVRLIRTFAGRLLGHPLSEVDTFIPTALVIAFDSINWLSWGNRLAALSLSDPRSKLEHHHHHH | not soluble
MGSDKIHHHHHHQSLKLSDNVVRIGVLTDLSGVYSELSGQGSVKAAQMAAADFMAMNPSFRGKVQVIGVDHQNKADVASNKAAEMIDRQKVDVLMDLPTSSAALAASEVARQKKVPVMVVTGGTTALTNEKCNKYTFHYAYDNYMLANGTGTAVTKRGGNSWYIIYPNYAFGQDLNRQMTAAIQENGGKLVAPSDATPFPNTDFSSYLLKAQGLKPKVFGTMQAGADLVNVVKQYNEFGLRQQGIGLGIGLLFETDVAALGQDAFAGALATVPWYWNMDQRARDWAAKFEKAFGKKPTWAQAGVYSATMTYLQAVARAKSDDGDAVVKALEGHRFSDFFARNAYVRPQDHRVMLDVYTVQVKPKAQAKENGDYFNKVATIPAARAFMPLSESKCRM | not soluble
MDLASLRAQQIELASSVICEDRLDKDPPDLIAGADVGFEQGGEVTRAAMVLLKYPSLELVEYKVARIATTMPYIPGFLSFREYPALLAAWEMLSQKPDLVFVDGHGISHPRRLGVASHFGLLVDVPTIGVAKKRLCGKFEPLSSKPGALAPLMDKGEQLAWVWRSKARCNPLFIATGHRVSVDSALAWVQRCMKGYRLPEPTRWADAVASERPAFVRYTANQPLEHHHHHH | not soluble
MSLIVVKIGGRVVKNSLDKIILDILNINDKVILVHGGGDIVTDYTKRLGIEPVFVTSPEGIRSRYTTKEELEVYIMAMSLINKSITSKLCSLGKNAIGITGVDGGLLLAERKKRIVVIDERGKKRIIEGGYTGKVKEVRSEIINHLVKLFDIIVVSPIALDVEERTPLNIDGDQAAFAISKALRANVLILLSDVEGVLVEGKVINRLTPSEAKELSKKIGPGMNRKLLMAAESVENGVNKVIIGSGVKDRPIINALELNGTVIANGEGHHHHHH | soluble
MVAKISVGSSLFGALSYNQNKVDEEQGKVLLSNRMFESEDGNFSIRRCMECFDMHLPADLKTEKPIIHISLNPHPDDVLSDSQLADIAKEYMDKLGYGNQPYMVYKHEDIARHHIHIVSIRVDDTGKKINDKFEHIRSKQITRELEQKYGLHPAEKKQAADRPELKKVDYRAGDVKHQLSNTVKALASSYRFQSFTEYKALLSIYNVQAEEVKGEVNGKPYNGIVYSATNDKGEKQGNPFKSSSLGKSVGYEAIQRHIKKSTKDIQDKNLKERTRRTVGAVMKSAHSRKELEQELKRKGIDVLFRQNDTGRIYGVTFIDHENRTVLNGSRLGKDFSANVFNDLFSGSRTLSGNSKQETQEQKPEYNPTGHLENTGKAIAGLFSLLSGGNDTPPDNSQVPPPKKKKKKKQRRILEHHHHHH | soluble
MGSDKIHHHHHHSGKLRKSNESGAMRAFRDGEVTIMVNVNLFTEGIDLPGVDVCIMLRPTASLSLYLQFAMRALNPRDGKRAILIDHVGNHIRHGLPNDDRYWTLEGVDKRKSSSKEKEEAPKTCENCFATFYRDRIVDGKCPYCGEPLKIIKDIEKEATNETLTLINQGMEFVSIRGEMIEVTREEALVYKRVKRYGKKYERCESLAELKAFRIIHGYAPGWLWHKQKELNLWRN | not soluble
MGSDKIHHHHHHMEPIMRNPEDALLDSWHQNAQAWIDAVRHGAIESRRQVTDQAILLAILGRQPERVLDLGCGEGWLLRALADRGIEAVGVDGDRTLVDAARAAGAGEVHLASYAQLAEAKVPVGKDYDLICANFALLHQDIIELLSAMRTLLVPGGALVIQTLHPWSVADGDYQDGWREESFAGFAGDWQPMPWYFRTLASWLNALDMAGLRLVSLQEPQHPQSAVPQSLLMVAERH | not soluble
MSLRLKTILLTTMATGSFLCEPVAAMCIEPPATPDMGWFLKKKKKSNPQDSIKVKNEYEKLTGSDSVVRRGMFNVYQKKNDYYFEIPSTLLERDMLVVNKLQRVPAELNEAGVNRGTNYENQMIRFELDKSANKLLIRQSRPLPISPSEDAISQSVKDNYISPLIAGFKVEAYNNDSTSILIKVNDIYDGTETSINNVFTNINLGTSAIKNLSRILSIKSFDNNVVATSELTTRVTEGTTTIYVTVEVSSSILLLPEVPMTGRLDNPRVGYFTNPLTNFSDGQQRVNKKQFITRWRLEPRPEDRAAYLRGELVEPRKPIVFYIENSTPYRWRKYIKQGIEDWQVAFERAGFKNAIIAKDITEDMEVDMDDVNYSVLTYAASTKANAMGPSILDPRSGEILEADIMWWHNVLSMLQEWITVQTGVVRPEAREGHHHHHH | not soluble
MSLKKSLTELISDLKGNENVVNWHEIEPREAKTRPMPESIDERIKAALSKRGIDELYTHQYSAFQYVQKGESIVTVTPTASGKTLCYNLPVLQSIAQDETNRALYLFPTKALAQDQKSELNEIIDEMGIDIKSFTYDGDTSPAIRQKVRKAGHIVITNPDMLHSAILPHHTKWVSLFENLKYIVIDELHTYRGVFGSHVANVIRRLKRICRFYGSDPVFICTSATIANPKELGEQLTGKPMRLVDDNGAPSGRKHFVFYNPPIVNKPLNIRRSATAEVNELAKEFLKNKVQTIVFARSRVRVEIILSHIQELVKKEIGTKSIRGYRGGYLPKERREIERGLREGDILGVVSTNALELGVDIGQLQVCVMTGYPGSVASAWQQAGRAGRRHGESLIIMVANSTPIDQYIVRHPEYFFNRSPESARINPENLIILVDHLKCAAYELPFRADEEFGAMEVSDILEYLQEEAVLHRNGERYHWASESFPASNISLRSASQENVVIVDQSDIANVRIIGEMDRFSAMTLLHDEAIYLHEGVQYQVEKLDWDHKKAYVRKVDVEYYTDANLAVQLKVLEIDKTKEKSRTSLHYGDVTVNALPTIFKKIKMTTFENIGSGPIHLPEEELHTSAAWLEIKTADEDIGEKTLEQLLLGISNVLQHIVPVYIMCDRNDVHVVSQIKAAHTGLPTIFLYDHYPGGIGLAEEVFKRFSDINEAAKQLITHCPCHDGCPSCIGTEIEGIKAKERILQLLDQMSEGHHHHHH | soluble
MGSDKIHHHHHHMHSFHDAFSAPNAGNDTEAKRLPAKRRIRLKTAVLGVLLLASVAAQAEPRLTDLQYIGSHNSYHAGFAPSEATLLKQHDPAAFATLDYRHPPLTQQLDDGVRQLELDVFADAHGGRYAHPAIVEQIAKAGLPPAPASAPAGVMNKPGFKVLHVQDVDQRSTCQPLVTCLQEVRAWSQQHPGHLPIFILLETKQSPVQLSFPTVQPEPFDRKAMDALDAELRSVFRPGEYVSPDTVRGTARTLNAAVLAHGWPALRATRGKVVFLLDQRAAGASYLPGHPSLRGRVCFTNAEPGQDDAAFTERNDGPAEDITRLVQAGYLVRTRTDADLKEPARGDNRRRDAMLATGAQLLSTDFPAHEPARNGYVVRFDGDAVARCAPQLPRAHCEGVDLTH | not soluble
MSLPNIFVEELVHTPIEKQVIEIVERKGIGHPDSLADGMAEAMSRELSREYIRRFGAVLHHNTDETQIVAGRSNPQFGGGEVIEPIYVLLVGRATKFFNGEYIPTDKIALKAARDYIRQHMQNLDPELDVVFNVRLGEGSTDLQDVFRRKSGNVALANDTSFGIGFAPLSETERLVFNVERRIYEEFRKKNPAIGEDVKVMGLREKDRISLTIAAAFVDRYVANIKEYDAIKEELENFVKEISSEYTEREVEVFVNTADDYETGCVYLTVTGTSAENGDDGSVGRGNRCNGLITPGRPMSMEASSGKNPINHVGKIYNLLANQIAARIAEEVEGVEEVYVRILSQIGKPINEPKALSVQVIPKSGYDISKLERPARDIAEEMIANVGKITDMVIEGKVRTFEGHHHHHH | soluble
QGMRAFLRVVETGNFTRASASLNMPKATVTNLIQGLEAHLRTKLLNRTTRRVLVTPDGALYYERAARLLSDLDELDGSLSTAQSLPKGRLRVETASAFANLVIIPALPEFHKKYPDIQIDLGVSDRTIDYLAENVDCAIRAGTLTDQSLIARRITEMKFVACASRDFLERHPVPQHPSDLEKNCYVVGYFLPKTGQQMPFHFRRGNEEIEVSGRYTMAANESTTYLAAARAGLGVIQAPLFMVREDLRNGTMVPVLPDWQVEPMPIYLVYPPNRHLSSRLRVFADWVVKVMAQSQNGEGS | soluble
MSLERSLSVTILFQDVPVSVWEINKNTPQPDWVKNCFENNTMVWYDNRLKILVKAINPSPKRDVKLGLRDTMLGYYGGGFVMGNIGDYFDATNGRVLSKKKFYKQYVINEEGHHHHHH | not soluble
